Test results from article PMC11189301, “Structure of the human outer kinetochore KMN network complex” (Nature Structural & Molecular Biology, 2024).
Where a chain is given by its changes, count along the chain named. Numbers in names are those of the source.

Experiments:
MIS12C (WT) = molecular target: T1, MIS12C (WT) (Homo sapiens, UniProt Q6P1K2+Q96IY1+Q9H081+Q9H410); assay: Isothermal titration calorimetry (ITC), peptide titrated into wild-type MIS12C; assay type: binding; details: 20 °C, 20 mM HEPES pH 7.5, 100 mM NaCl, 1 mM TCEP, syringe Dsn1^92-113 W96A/R97A/R98A 1.0 mM, cell MIS12C(WT) 0.089 mM, listed as Dsn1^92–113 peptide with three Ala residues
T1 construct: TEV-cleavable double Strep II (DS) tag (C); made in house; host or cells: High-5 insect cells (baculovirus)

[1] = molecular target: MIS12 complex with Dsn1 residues 6–113 deleted (Homo sapiens, UniProt Q9H081 1-205; Q6P1K2 1-205; Q9H410 1-356; Q96IY1 1-281, 6–113 residues deleted); assay: ITC
[2] = molecular target: T2, MIS12 complex (Mis12, Pmf1, Dsn1, Nsl1), wild type, full length (Homo sapiens, UniProt Q9H081 1-205; Q6P1K2 1-205; Q9H410 1-356; Q96IY1 1-281); assay: ITC
T2 chain 1: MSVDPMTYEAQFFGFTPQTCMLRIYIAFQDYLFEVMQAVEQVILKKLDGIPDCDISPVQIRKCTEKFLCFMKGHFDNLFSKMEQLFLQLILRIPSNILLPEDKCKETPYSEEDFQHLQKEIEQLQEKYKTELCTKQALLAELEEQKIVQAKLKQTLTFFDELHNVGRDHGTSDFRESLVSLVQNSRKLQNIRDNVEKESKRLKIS
T2 chain 2: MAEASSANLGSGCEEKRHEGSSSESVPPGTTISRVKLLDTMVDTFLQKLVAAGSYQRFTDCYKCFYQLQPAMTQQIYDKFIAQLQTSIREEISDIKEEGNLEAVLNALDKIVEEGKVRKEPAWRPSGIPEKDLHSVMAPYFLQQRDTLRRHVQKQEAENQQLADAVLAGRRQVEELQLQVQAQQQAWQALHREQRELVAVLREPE
T2 chain 3: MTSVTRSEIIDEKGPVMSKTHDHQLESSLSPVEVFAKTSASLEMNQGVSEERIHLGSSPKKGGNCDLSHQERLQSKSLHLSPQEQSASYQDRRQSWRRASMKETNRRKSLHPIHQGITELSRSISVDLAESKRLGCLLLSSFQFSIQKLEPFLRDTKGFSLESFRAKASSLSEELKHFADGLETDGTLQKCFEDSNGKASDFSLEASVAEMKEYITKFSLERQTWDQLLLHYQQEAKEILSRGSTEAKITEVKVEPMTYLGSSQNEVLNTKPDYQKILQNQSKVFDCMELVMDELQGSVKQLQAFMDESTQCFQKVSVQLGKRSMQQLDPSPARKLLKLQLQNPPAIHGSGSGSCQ
T2 chain 4: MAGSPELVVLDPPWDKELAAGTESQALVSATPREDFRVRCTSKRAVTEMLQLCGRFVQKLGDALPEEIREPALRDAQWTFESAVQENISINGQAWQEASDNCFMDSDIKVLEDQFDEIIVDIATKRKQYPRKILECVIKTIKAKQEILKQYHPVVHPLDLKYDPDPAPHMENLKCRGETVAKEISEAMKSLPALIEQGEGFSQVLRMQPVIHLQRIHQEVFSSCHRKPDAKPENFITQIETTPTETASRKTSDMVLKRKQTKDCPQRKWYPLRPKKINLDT

[3] = molecular target: T3, MIS12 complex (Mis12, Pmf1, Dsn1, Nsl1), wild type, full length (Homo sapiens, UniProt Q9H081 1-205; Q6P1K2 1-205; Q9H410 1-356; Q96IY1 1-281); assay: ITC; peptide in the syringe titrated into the MIS12C variant in the cell; 20 °C; 20 mM HEPES pH 7.5, 100 mM NaCl, 1 mM TCEP; single-site binding model; duplicate or triplicate; details: both partners purified
T3 construct: Mis12, subunit of human MIS12C; Pmf1, subunit of human MIS12C; Dsn1, subunit of human MIS12C; Nsl1, subunit of human MIS12C; The DS tag on Pmf1 is TEV cleavable; a cleavage is not described; also called MIS12C (WT); wild-type MIS12C; source: High-5 insect cells (baculovirus), purified (Strep-Tactin, Resource S, Superdex 200); copies: + + +
T3 sequence (looked up) 1: T2 chain 1
T3 sequence (looked up) 2: T2 chain 2
T3 sequence (looked up) 3: T2 chain 3
T3 sequence (looked up) 4: T2 chain 4

[4] = molecular target: T4, MIS12 complex with Dsn1 residues 6–113 deleted (Homo sapiens, UniProt Q9H081 1-205; Q6P1K2 1-205; Q9H410 1-356; Q96IY1 1-281, 6–113 residues deleted); assay: as above; details: both partners purified
T4 construct: Mis12, subunit of human MIS12C; Pmf1, subunit of human MIS12C; Nsl1, subunit of human MIS12C; also called MIS12C^Dsn1ΔN; MIS12C^ΔN-Dsn1; source: High-5 insect cells (baculovirus), purified (Strep-Tactin, Resource S, Superdex 200); copies: + + +
T4 sequence (looked up) 1: T2 chain 1
T4 sequence (looked up) 2: T2 chain 2
T4 sequence (looked up) 3: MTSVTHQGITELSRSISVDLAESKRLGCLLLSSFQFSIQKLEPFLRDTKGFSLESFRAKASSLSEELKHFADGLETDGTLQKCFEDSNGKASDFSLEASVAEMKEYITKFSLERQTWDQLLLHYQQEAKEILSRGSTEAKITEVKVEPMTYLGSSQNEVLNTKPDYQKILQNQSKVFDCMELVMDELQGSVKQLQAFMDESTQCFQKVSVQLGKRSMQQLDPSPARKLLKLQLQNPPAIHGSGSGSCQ
T4 sequence (looked up) 4: T2 chain 4

[5] = molecular target: T3, MIS12 complex (Mis12, Pmf1, Dsn1, …); assay: SEC; MIS12C or MIS12C^Nsl1ΔC mixed with Knl1 2131–2337 or its mutants at 4 µM each; 20 mM HEPES pH 7.8, 150 mM NaCl, 0.5 mM TCEP; Superose 6; fractions on SDS-PAGE; details: both partners purified
NDC80C = assay: SEC assessment of MIS12C mutants binding to NDC80C; design: species or system Homo sapiens; details: MIS12C mutant + wild-type NDC80 at 4 µM each; 20 mM HEPES pH 7.8, 150 mM NaCl, 0.5 mM TCEP; Superose 6; SDS-PAGE; at least two repeats
Description: Assessment of substitutions in the MIS12C–NDC80C interfaces
To test the effect of substitutions in the MIS12C–NDC80C interfaces, either wild-type MIS12C or three MIS12C mutants (MIS12C^Nsl1-E219R V220R F221A, MIS12C^Dsn1-P332W R334A L336R, MIS12C^Nsl1-E219R V220R F221A, Dsn1-P332W R334A L336R) were mixed with wild-type NDC80 at 4 µM each in a buffer of 20 mM HEPES (pH 7.8), 150 mM NaCl and 0.5 mM TCEP, and 50 µl was loaded onto a Superose 6 size-exclusion column (Cytiva).
Extended Data Fig. 7 Biochemical characterization of MIS12C:NDC80C interactions. a Coomassie blue-stained SDS-PAGE gels of the MIS12C:NDC80C interaction reconstitutions. MIS12C (WT), MIS12C with E219/RV220R/F221A substitutions in Nsl1 (MIS12C^Nsl1 E219/RV220R/F221A) and MIS12C with P332W/R334A/L336R substitutions in Dsn1 (MIS12C^Dsn1 P332W/R334A/L336R) were tested for binding to full-length, unmodified NDC80C. The binding experiments were repeated at least two independent times with identical results. The gels are aligned according to the fraction number of the protein sample eluted from the size exclusion column. b SEC elution chromatograms of all of the experiments described in (a). c. Comparison of the Spc24:Spc25 interaction with peptides from MIS12C and CENP-T (PDB ID: 3VZA ref. [29]). Source data

Molecule: RRQSAAAASMKETNRRKSLHPI-AW [Dsn1^92–113 W96A R97A R98A, Dsn1^92–113 peptide with WRR linchpin substituted by three Ala residues]
- Kd / interaction of mutant Dsn1^92–113 peptide, in words (MIS12C (WT)): completely abolished

B1: Dsn1^92–113 auto-inhibitory peptide, wild type (peptide)
peptide: Ac-RRQSWRRASMKETNRRKSLHPIAW-NH2
notes: Ala-Trp added for determination of concentration by absorption at 280 nm; source: synthetic peptide (Cambridge Research Biochemicals)
- Kd [1]: 4.89 µM
- Kd [2]: 214 µM
- binding result [3]: binds
- fold increase in binding against wild-type MIS12C [4]: 44 fold

B2: Knl1 residues 2131–2337, mut2 (S2270R S2272W) (domain or fragment, H. sapiens, UniProt Q8NG31 2131-2337, looked up)
chain: SLSEWDVVEWSDDQAVFTFVYDTIQLTITFEESVVGFPFLDKRYRKIVDVNFQSLLDEDQAPPSSLLVHKLIFQYVEEKESWKKTCTTQHQLPKMLEEFSLVVHHCRLLGEEIEYLKRWGPNYNLMNIDINNNELRLLFRSWAAFAKFEITLFLSAYYPSVPLPSTIQNHVGNTSQDDIATILSKVPLENNYLKNVVKQIYQDLFQD
notes: Knl1, human, residues 2131-2337, RWD-C surface mutant 2; also called Knl1^mut2; KNL1^mut2; source: E. coli BL21 (DE3), purified (Ni-NTA, reverse IMAC, Superdex 75); not shown: His6, N-terminal, cleaved
- binding result [5]: binds

B3: Dsn1-P332W R334A L336R mutant: MIS12C with P332W/R334A/L336R substitutions in Dsn1 (protein)
chain 1: T2 chain 1
chain 2: T2 chain 2
chain 3: T2 chain 3 with P332W, R334A, L336R
chain 4: T2 chain 4
modifications: left off: double strep II (DS), C-terminal, state not stated
- MIS12C–NDC80C interaction by SEC, in words (NDC80C): reduced the affinity of MIS12C for NDC80C

B4: Nsl1-E219R V220R F221A mutant: MIS12C with E219R V220R F221A substitutions in Nsl1 (protein)
chain 1: T2 chain 1
chain 2: T2 chain 2
chain 3: T2 chain 3
chain 4: T2 chain 4 with E219R, V220R, F221A
modifications: left off: double strep II (DS), C-terminal, state not stated
- MIS12C–NDC80C interaction by SEC, in words (NDC80C): reduced the affinity of MIS12C for NDC80C

B5: Dsn1-P332W R334A L336R and Nsl1-E219R V220R F221A mutants: MIS12C combining the Dsn1 and Nsl1 interface mutants (protein)
chain 1: T2 chain 1
chain 2: T2 chain 2
chain 3: T2 chain 3 with P332W, R334A, L336R
chain 4: T2 chain 4 with E219R, V220R, F221A
modifications: left off: double strep II (DS), C-terminal, state not stated
- MIS12C–NDC80C interaction by SEC, in words (NDC80C): completely abolished MIS12C–NDC80C interactions
